{"source": "patent US20110064733A1", "key": {"[1]": {"molecular_target": "Muc1 as expressed by DS6 negative & CM1 positive cell lines (KLE, OVCAR3, SKOV3), without the CA6 glycotope (human) (UniProt P15941)", "test": "flow cytometry on SKOV3 cells"}, "[2]": {"molecular_target": "Muc1 as expressed by DS6 negative & CM1 positive cell lines (KLE, OVCAR3, SKOV3), without the CA6 glycotope (human) (UniProt P15941)", "test": "flow cytometry on KLE cells"}, "[3]": {"molecular_target": "Muc1 as expressed by DS6 negative & CM1 positive cell lines (KLE, OVCAR3, SKOV3), without the CA6 glycotope (human) (UniProt P15941)", "test": "flow cytometry on OVCAR3 cells"}, "[4]": {"molecular_target": "Muc1 as expressed by DS6 negative & CM1 positive cell lines (KLE, OVCAR3, SKOV3), without the CA6 glycotope (human) (UniProt P15941)", "test": "flow cytometry on SKOV3 cells (DS6 negative)"}, "[5]": {"molecular_target": "Muc1 as expressed by DS6 negative & CM1 positive cell lines (KLE, OVCAR3, SKOV3), without the CA6 glycotope (human) (UniProt P15941)", "test": "flow cytometry on KLE cells (DS6 negative)"}, "[6]": {"molecular_target": "Muc1 as expressed by DS6 negative & CM1 positive cell lines (KLE, OVCAR3, SKOV3), without the CA6 glycotope (human) (UniProt P15941)", "test": "flow cytometry on OVCAR3 cells (DS6 negative)"}}}
{"substance": "CM1 antibody (Muc1 VNTR antibody)", "values": [{"measurement": "MMF (maximum mean relative fluorescence) (relative fluorescence)", "setting": "[1]", "result": 49.4}, {"measurement": "MMF (maximum mean relative fluorescence) (relative fluorescence)", "setting": "[2]", "result": 562}, {"measurement": "MMF (maximum mean relative fluorescence) (relative fluorescence)", "setting": "[3]", "result": 192}]}
{"substance": "murine anti-CA6 monoclonal antibody DS6", "values": [{"measurement": "MMF (maximum mean relative fluorescence) (relative fluorescence)", "setting": "[4]", "result": 17.5}, {"measurement": "MMF (maximum mean relative fluorescence) (relative fluorescence)", "setting": "[5]", "result": 27.5}, {"measurement": "MMF (maximum mean relative fluorescence) (relative fluorescence)", "setting": "[6]", "result": 21.2}]}
